Source: the RNAGym collection of RNA variant scans (doi:10.1073/pnas.2313332121)

B1: TPR t1 (parent)
chain: GACCAAUCUGCCCUCAGAGCUCGAGAACAUCUUCGGAUGCAGAGGAGGCAGGCUUCGGUGGCGCGAUAGCGCCAACGUCCUCAACCUCCAAUGCAUCCCACCACAUGAUGAUGCCUGAAGAGCCUUGGUUUUUUG

Variants of: B1
Test: polymerase ribozyme fitness, log enrichment relative to wild type (log ratio); higher = more active; in vitro selection for triplet polymerase activity
Method in brief: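 Each subunit of a heterodimeric triplet polymerase ribozyme was represented by a PCR-built, transcribed mutant library that underwent triplicate single-round in vitro selection with frozen incubation at −7 °C. Extended constructs were recovered by gel excision, streptavidin-bead capture and RT-PCR, and Illumina sequencing of input and output libraries kept genotypes with ≥10 input reads and ≥1 read per output. Fitness is the logarithm of genotype enrichment relative to wild-type enrichment, from inverse-variance-weighted replicate averages, with a logarithm base of 2.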
With GACCAAUCUGCCCUCAGAGCUCGAGAACAUCUUCGGAUGCAGAGGAGGCAGGCUUCGGUGGCUCGAUAGCGCCAACGUCCUCAACCUCCAAUGCAUCCCACCACACGAUGAUGCCUGAAGAGCCUUGGUUUUUUG [G63U U106C] the “polymerase ribozyme fitness (log ratio)” value was -1.92. In the case of GACCAAUCUGCCCUCAGAGCUCGAGAACAUCUUCGGAUGCAGAGGAGGCAGGCUUCGGUGGCUCGAUAGCGCCAACGUCCUCAACCACCAAUGCAUCCCACCACAUGAUGAUGACUGAAGAGCCUUGGUUUUUUG [G63U U87A C114A], the “polymerase ribozyme fitness (log ratio)” value is reported as -3.29. In the case of GACCAAUCUGCCCUCAGAGCUCGAGAACAUCUUCGGAUGCAGAGGAGGCAGGCUUCGGUGGCGAGAUACCGCCAUCGUCCUCAACCACCAAUGCAACCCACCACAUGAUGAUGCCUGAAGAGCCUUGGUUUUUUG [C64A G69C A75U U87A U96A], the “polymerase ribozyme fitness (log ratio)” value is reported as -1.55. With GACCAAUCUGCCCUCAGAGCUCGAGAACAUCUUCGGAUGCAGAGGAGGCAGGCUUCGGUGGCGAGAUAGCGCCAACGUCGUCUACCUCCAAUGCAUCCUACCCCAUGAUGAUGCCUGAAGAGCCAUGGUUUUUUG [C64A C80G A83U C99U A103C U125A] the “polymerase ribozyme fitness (log ratio)” value was -7.56. For GACCAAUCUGCCCUCAGAGCUCGAGAACAUCUUCGGAUGCAGAGGAGGCAGGCUUCGGUGGCGAGAUAGCGCCAACGUCCUCAACCUCCAAUGCAUCCCACCACAUGAUGAUGCCUGAACAGCCUUGGUUUUUUG [C64A G120C], the “polymerase ribozyme fitness (log ratio)” value was -3.88. For GACCAAUCUGCCCUCAGAGCUCGAGAACAUCUUCGGAUGCAGAGGAGGCAGGCUUCGGUGGCGAGAUAGCGCCAACGUCGUCAACCUCCAAUGCAUCCCACCCCAUGAGGAUGCCUGUAGAGCCUUGGUUUUUUG [C64A C80G A103C U109G A118U], the “polymerase ribozyme fitness (log ratio)” value was -5.65. For GACCAAUCUGCCCUCAGAGCUCGAGAACAUCUUCGGAUGCAGAGGAGGCAGGCUUCGGUGGCGAGAUAGCGCCAACGUCCUCAACCUCCAAUGCAUCCCACCACAUGAUGAUGCUUGAAGAGCCUUGGUUUUUUG [C64A C115U], the “polymerase ribozyme fitness (log ratio)” value was -5.54. With GACCAAUCUGCCCUCAGAGCUCGAGAACAUCUUCGGAUGCAGAGGAGGCAGGCUUCGGUGGCGAGAUAGCGCCAACGUCCUCUACCUCCAAUGCAUCCCACCACAUGAUGAUGCCUGAAGAGCCUUGGUUUUUUG [C64A A83U] the “polymerase ribozyme fitness (log ratio)” value was -7.05. For GACCAAUCUGCCCUCAGAGCUCGAGAACAUCUUCGGAUGCAGAGGAGGCAGGCUUCGGUGGCUCGAUAGCGCCAACGUCCUCAACCUCCAAUGCACCCCACCACAUGAUGAUGCCUGAAGAGCCUUGGUUUUUUG [G63U U96C], the “polymerase ribozyme fitness (log ratio)” value was -1.31. In the case of GACCAAUCUGCCCUCAGAGCUCGAGAACAUCUUCGGAUGCAGAGGAGGCAGGCUUCGGUGGCGAGAUAGCGCCAACGUCCUCAACCUCCAAUCCAUCCCACCACAUGAUGAUGCCUCAAGAGCCUUGGUUUUUUG [C64A G93C G117C], the “polymerase ribozyme fitness (log ratio)” value is reported as -6.1. For GACCAAUCUGCCCUCAGAGCUCGAGAACAUCUUCGGAUGCAGAGGAGGCAGGCUUCGGUGGCUCGAUAGCGCCAACGUCCUCAACCUCCAAUGCAUCCCACCACAUGAUGAAGCCUGAAAAGCCUUGGUUUUUUG [G63U U112A G120A], the “polymerase ribozyme fitness (log ratio)” value was -1.02. For GACCAAUCUGCCCUCAGAGCUCGAGAACAUCUUCGGAUGCAGAGGAGGCAGGCUUCGGUGGCGAGAUAGCGCCAACGUCCUCAACCUCCAAUGCAUCCCACCACAUGAUGAUGCCUCAAGAGCCUUGGUUUUUUG [C64A G117C], the “polymerase ribozyme fitness (log ratio)” value was -6.03. With GACCAAUCUGCCCUCAGAGCUCGAGAACAUCUUCGGAUGCAGAGGAGGCAGGCUUCGGUGGCGAGAUAGCGCCAACGUCCUCAACCUCCAAUGCAUCCCACCACAUGAUGAUGCCUUAAGAGCCUUGGUUUUUUG [C64A G117U] the “polymerase ribozyme fitness (log ratio)” value was -6.44. For GACCAAUCUGCCCUCAGAGCUCGAGAACAUCUUCGGAUGCAGAGGAGGCAGGCUUCGGUGGCGAGAUAGCGCCAACGUCCUCAACCUCCAAUGCAUCCCACCACAUGAUGAUGCCUGAAGAGCAUUGGUUUUUUG [C64A C124A], the “polymerase ribozyme fitness (log ratio)” value was -4.7. For GACCAAUCUGCCCUCAGAGCUCGAGAACAUCUUCGGAUGCAGAGGAGGCAGGCUUCGGUGGCUCGAUAGCGCCAACGUCCUCAACCUCCAAAGCAACCCACCACAUGAUGAUCCCUGAAGAGCCUUGGUUUUUUG [G63U U92A U96A G113C], the “polymerase ribozyme fitness (log ratio)” value was -3.99. For GACCAAUCUGCCCUCAGAGCUCGAGAACAUCUUCGGAUGCAGAGGAGGCAGGCUUCGGUGGCUCGAUAGCGCCAACGUCCUCAACCUCCAAUGCAUCCCACCACAUGAUGAUGCCUGAAGAGCCUUGGUUUUUGG [G63U U134G], the “polymerase ribozyme fitness (log ratio)” value was -1.64. For GACCAAUCUGCCCUCAGAGCUCGAGAACAUCUUCGGAUGCAGAGGAGGCAGGCUUCGGUGGCUCGAUAGCGCCAACGUCCUCAACCUCCAAUGCAUCCCACCACAUGAUGAUGCCUGAAGAGCCUUGGUCUUUUG [G63U U130C], the “polymerase ribozyme fitness (log ratio)” value was -1.84. In the case of GACCAAUCUGCCCUCAGAGCUCGAGAACAUCUUCGGAUGCAGAGGAGGCAGGCUUCGGUGGCUCGAUAGCGCCAACGUCCUCAACCUCCAAUGCAUCCCACCACAUGAUGAUGCCUGAAGAGCCUUAGUUUUUUG [G63U G127A], the “polymerase ribozyme fitness (log ratio)” value is reported as -2.25. For GACCAAUCUGCCCUCAGAGCUCGAGAACAUCUUCGGAUGCAGAGGAGGCAGGCUUCGGUGGCGAGAUAGCGCCAACGUCCUCAACCUCCAAUGCAUCCCACCACAUGAUGAUACCUGAAGAGCCUUGGUUUUUUG [C64A G113A], the “polymerase ribozyme fitness (log ratio)” value was -6.92. With GACCAAUCUGCCCUCAGAGCUCGAGAACAUCUUCGGAUGCAGAGGAGGCAGGCUUCGGUGGCGAGAUAGCGCCAACGUCCUCAACUUCCAAUGCAUCUCACCACAUGAUGAUGCCUGAAGAGCCUUGGUUUUUUG [C64A C86U C98U] the “polymerase ribozyme fitness (log ratio)” value was -7.04. With GACCAAUCUGCCCUCAGAGCUCGAGAACAUCUUCGGAUGCAGAGGAGGCAGGCUUCGGUGGCUCGAUAGCGCCAACGUCCCCAACAUCCAAUGCAUCCCACCACAUGAUGAUGCCUGAAGAGCCUUGGCUUUUUG [G63U U81C C86A U129C] the “polymerase ribozyme fitness (log ratio)” value was -5.92.
